Changes are numbered by the printed parent chain. In names and notes the source's numbering stands.
Tests used:
Assay in all cases: cell_activity; human T cells, 1 ug mRNA, day 3
Settings in all cases: tags: N-terminal SV40 NLS
B2M 13-14x.93 EQY66 = biological target: T1, B2M 13-14x.93 EQY66 (Artificial Sequence)
T1 chain: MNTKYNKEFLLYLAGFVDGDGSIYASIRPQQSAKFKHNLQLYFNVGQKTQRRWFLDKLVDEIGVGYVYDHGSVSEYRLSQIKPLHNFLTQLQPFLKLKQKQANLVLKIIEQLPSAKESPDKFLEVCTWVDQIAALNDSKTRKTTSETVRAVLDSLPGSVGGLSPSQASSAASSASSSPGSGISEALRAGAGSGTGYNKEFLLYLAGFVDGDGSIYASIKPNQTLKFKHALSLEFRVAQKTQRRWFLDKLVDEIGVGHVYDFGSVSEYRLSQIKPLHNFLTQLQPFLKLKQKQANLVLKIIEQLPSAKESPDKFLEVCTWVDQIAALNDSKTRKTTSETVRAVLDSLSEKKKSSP
Method: (§1) To test these variants of B2M 13-14x.93, donor human T cells were stimulated with anti-CD3 and anti-CD28 antibodies for 3 days, then electroporated with mRNA encoding a given B2M 13-14 meganuclease (1 μg) using the Amaxa 4D-Nucleofector (Lonza) according to the manufacturer's instructions. At 3 days post-electroporation, cells were stained with an antibody recognizing β-2 microglobulin (BD Biosciences) and analyzed by flow cytometry.

B2M 13-14x.93 EEY66 = biological target: T2, B2M 13-14x.93 EEY66 (Artificial Sequence)
T2 chain: T1 chain with Q80E, Q271E
Method: as §1

B2M 13-14x.93 EER66 = biological target: T3, B2M 13-14x.93 EER66 (Artificial Sequence)
T3 chain: T1 chain with Y66R, Q80E, Q271E
Method: as §1

B2M 13-14x.93 QQY66 = biological target: T4, B2M 13-14x.93 QQY66 (Artificial Sequence)
T4 chain: T1 chain
Method: as §1

B2M 13-14x.93 QQK66 = biological target: T5, B2M 13-14x.93 QQK66 (Artificial Sequence)
T5 chain: T1 chain with Y66K
Method: as §1

B2M 13-14x.93 EQ = biological target: T6, B2M 13-14x.93 EQ (Artificial Sequence)
T6 chain: T1 chain with Q80E
Method: as §1

B2M 13-14x.93 EE = biological target: T7, B2M 13-14x.93 EE (Artificial Sequence)
T7 chain: T1 chain with Q80E, Q271E
Method: as §1

B2M 13-14x.93 EQR66 = biological target: T8, B2M 13-14x.93 EQR66 (Artificial Sequence)
T8 chain: T1 chain with Y66R, Q80E
Method: as §1

B1: B2M 13-14 recognition sequence (dsDNA)
DNA 1: CTATCTCTTGTACTACACTGAA
DNA 2: TTCAGTGTAGTACAAGAGATAG
- activity (B2M 13-14x.93 EQY66): 21.4 % B2M-negative
- activity (B2M 13-14x.93 EEY66): 1.58 % B2M-negative
- activity (B2M 13-14x.93 EER66): 7.07 % B2M-negative
- activity (B2M 13-14x.93 QQY66): 19.2 % B2M-negative
- activity (B2M 13-14x.93 QQK66): 2.64 % B2M-negative
- activity (B2M 13-14x.93 EQ): 5.13 % B2M-negative
- activity (B2M 13-14x.93 EE): 18.3 % B2M-negative
- activity (B2M 13-14x.93 EQR66): 5.12 % B2M-negative
